In paper PMC5605669, “Dimerization regulates both deaminase-dependent and deaminase-independent HIV-1 restriction by APOBEC3G” (Nature Communications, 2017):

Key:
[1] = molecular target: the molecule itself; assay: cell-based or functional assay
[2] = molecular target: the molecule itself; assay: optical tweezers (single-molecule ssDNA extension); fraction of bound A3G that stays stably bound after washing with buffer, against incubation time (200 to 1000 s) at 50 nM; single exponential fit gives the oligomerization rate on ssDNA at 80 pN
[3] = molecular target: the molecule itself; assay: AFM imaging; 70 nM A3G incubated 10 min with linearized m13 ssDNA in 10 mM Tris, 2.5 mM NaCl; deposited on APTES coated mica, imaged in liquid; monomers per cluster on ssDNA from cluster volume

Protein	binding result [3]	also measured
APOBEC3G, wild type (enzyme, human, UniProt Q9HC16 1-384, looked up) MKPHFRNTVERMYRDTFSYNFYNRPILSRRNTVWLCYEVKTKGPSRPPLDAKIFRGQVYSELKYHPEMRFFHWFSKWRKLHRDQEYEVTWYISWSPCTKCTRDMATFLAEDPKVTLTIFVARLYYFWDPDYQEALRSLCQKRDGPRATMKIMNYDEFQHCWSKFVYSQRELFEPWNNLPKYYILLHIMLGEILRHSMDPPTFTFNFNNEPWVRGRHETYLCYEVERMHNDTWVLLNQRRGFLCNQAPHKHGFLEGRHAELCFLDVIPFWKLDLDQDYRVTCFTSWSPCFSCAQEMAKFISKNKHVSLCIFTARIYDDQGRCQEGLRTLAEAGAKISIMTYSEFKHCWDTFVDHQGCPFQPWDGLDEHSQDLSGRLRAILQNQEN		deaminase activity on labeled 118-nt ssDNA after 3 min pre-incubation of 25 nM A3G with unlabeled 69-nt trap ssDNA (0.5 to 5 mM as printed), fold reduction (threefold to 13-fold) [1]: 13 fold
APOBEC3G F126A-W127A (NTD mutant) (enzyme, human, UniProt Q9HC16 1-384, looked up, APOBEC3G (A3G), human, with F126A and W127A in the N-terminal domain; The methods describe the making of A3G in general; also called FW; FW A3G; source: Sf9 cells (recombinant baculovirus), purified in the presence of RNase A) MKPHFRNTVERMYRDTFSYNFYNRPILSRRNTVWLCYEVKTKGPSRPPLDAKIFRGQVYSELKYHPEMRFFHWFSKWRKLHRDQEYEVTWYISWSPCTKCTRDMATFLAEDPKVTLTIFVARLYYAADPDYQEALRSLCQKRDGPRATMKIMNYDEFQHCWSKFVYSQRELFEPWNNLPKYYILLHIMLGEILRHSMDPPTFTFNFNNEPWVRGRHETYLCYEVERMHNDTWVLLNQRRGFLCNQAPHKHGFLEGRHAELCFLDVIPFWKLDLDQDYRVTCFTSWSPCFSCAQEMAKFISKNKHVSLCIFTARIYDDQGRCQEGLRTLAEAGAKISIMTYSEFKHCWDTFVDHQGCPFQPWDGLDEHSQDLSGRLRAILQNQEN		fold reduction of oligomerization rate against WT [2]: 3 fold
APOBEC3G R313A-D316A-D317A-Q318A (CTD mutant) (enzyme, human, UniProt Q9HC16 1-384, looked up, APOBEC3G (A3G), human, with R313A, D316A, D317A and Q318A in the C-terminal domain; The methods describe the making of A3G in general; also called RDDQ; RDDQ A3G; source: Sf9 cells (recombinant baculovirus), purified in the presence of RNase A) MKPHFRNTVERMYRDTFSYNFYNRPILSRRNTVWLCYEVKTKGPSRPPLDAKIFRGQVYSELKYHPEMRFFHWFSKWRKLHRDQEYEVTWYISWSPCTKCTRDMATFLAEDPKVTLTIFVARLYYFWDPDYQEALRSLCQKRDGPRATMKIMNYDEFQHCWSKFVYSQRELFEPWNNLPKYYILLHIMLGEILRHSMDPPTFTFNFNNEPWVRGRHETYLCYEVERMHNDTWVLLNQRRGFLCNQAPHKHGFLEGRHAELCFLDVIPFWKLDLDQDYRVTCFTSWSPCFSCAQEMAKFISKNKHVSLCIFTAAIYAAAGRCQEGLRTLAEAGAKISIMTYSEFKHCWDTFVDHQGCPFQPWDGLDEHSQDLSGRLRAILQNQEN	binds	
APOBEC3G I314A-Y315A (CTD mutant) (enzyme, human, UniProt Q9HC16 1-384, looked up, APOBEC3G (A3G), human, with I314A and Y315A in the C-terminal domain; The methods describe the making of A3G in general; also called IY; IY A3G; source: Sf9 cells (recombinant baculovirus), purified in the presence of RNase A) MKPHFRNTVERMYRDTFSYNFYNRPILSRRNTVWLCYEVKTKGPSRPPLDAKIFRGQVYSELKYHPEMRFFHWFSKWRKLHRDQEYEVTWYISWSPCTKCTRDMATFLAEDPKVTLTIFVARLYYFWDPDYQEALRSLCQKRDGPRATMKIMNYDEFQHCWSKFVYSQRELFEPWNNLPKYYILLHIMLGEILRHSMDPPTFTFNFNNEPWVRGRHETYLCYEVERMHNDTWVLLNQRRGFLCNQAPHKHGFLEGRHAELCFLDVIPFWKLDLDQDYRVTCFTSWSPCFSCAQEMAKFISKNKHVSLCIFTARAADDQGRCQEGLRTLAEAGAKISIMTYSEFKHCWDTFVDHQGCPFQPWDGLDEHSQDLSGRLRAILQNQEN	binds	
